Article PMC6921004, “Structural Characterization of Full-Length Human Dehydrodolichyl Diphosphate Synthase Using an Integrative Computational and Experimental Approach” (Biomolecules, 2019)

B1: human dehydrodolichyl diphosphate synthase (DHDDS), full-length homodimer (Homo sapiens) (protein)
chain: MSWIKEGELSLWERFCANIIKAGPMPKHIAFIMDGNRRYAKKCQVERQEGHSQGFNKLAETLRWCLNLGILEVTVYAFSIENFKRSKSEVDGLMDLARQKFSRLMEEKEKLQKHGVCIRVLGDLHLLPLDLQELIAQAVQATKNYNKCFLNVCFAYTSRHEISNAVREMAWGVEQGLLDPSDISESLLDKCLYTNRSPHPDILIRTSGEVRLSDFLLWQTSHSCLVFQPVLWPEYTFWNLFEAILQFQMNHSVLQKARDMYAEERKRQQLERDQATVTEQLLREGLQASGDAQLRRTRLHKLSARREERVQGFLQALELKRADWLARLGTASA
notes: full-length; expressed in E. coli T7 express from pET-32b as thioredoxin-6xHis fusion, tag and fusion removed by TEV protease; without NgBR
B2: Dehydrodolichyl diphosphate synthase (DHDDS), full-length human (enzyme, UniProt Q86SQ9 1-333, looked up)
chain: MSWIKEGELSLWERFCANIIKAGPMPKHIAFIMDGNRRYAKKCQVERQEGHSQGFNKLAETLRWCLNLGILEVTVYAFSIENFKRSKSEVDGLMDLARQKFSRLMEEKEKLQKHGVCIRVLGDLHLLPLDLQELIAQAVQATKNYNKCFLNVCFAYTSRHEISNAVREMAWGVEQGLLDPSDISESLLDKCLYTNRSPHPDILIRTSGEVRLSDFLLWQTSHSCLVFQPVLWPEYTFWNLFEAILQFQMNHSVLQKARDMYAEERKRQQLERDQATVTEQLLREGLQASGDAQLRRTRLHKLSARREERVQGFLQALELKRADWLARLGTASA
notes: Dehydrodolichyl diphosphate synthase (DHDDS), human, UniProt Q86SQ9, full length; synthesized gene cloned into pET-32b between NdeI and BamHI; Expressed as a TRX fusion with a 6xHis-tag and a TEV site; the tag and the fusion were removed by TEV protease; also called hDHDDS; human DHDDS; source: E. coli T7 express, purified (TALON-Superflow, TEV cleavage, second TALON-Superflow, Superdex-200 SEC)

Assays:
purified protein [1] = substrate: CC(C)=CCC/C(C)=C/CC/C(C)=C/CO[P@@](=O)(O)OP(=O)(O)O; assay: purified protein; assay type: biochemical, Homo sapiens; details: 20 μM ^14C-IPP, 0.1 μM protein, Tris-HCl pH 7.5, 150 mM NaCl, 20 mM β-mercaptoethanol, 0.1% Triton X-100, 30 °C, homodimer without NgBR
purified protein [2] = substrate: C=C(C)CCO[P@@](=O)(O)OP(=O)(O)O; assay: purified protein; details: 10 μM FPP, 0.5 μM protein, labelled compound (^14C), Tris-HCl pH 7.5, 150 mM NaCl, 20 mM β-mercaptoethanol, 0.1% Triton X-100, 30 °C, homodimer without NgBR
[3] = target: the molecule itself; assay: SEC-MALS; Superdex-200 increase 10/300 GL; Tris-HCl pH 7.5, 150 mM NaCl, 20 mM beta-mercaptoethanol, 0.02% Triton X-100; sample 2 mg/mL, 50 uL

Protein | Km (purified protein [1]) [µM] | kcat (purified protein [1]) [s⁻¹] | Km (purified protein [2]) [µM] | kcat (purified protein [2]) [s⁻¹] | stoichiometry N [3]
B1 | 0.45 ± 0.1 | 0.0011 ± 0.0001 | 9.3 ± 2.8 | 0.0011 ± 0.0001 | –
B2 | – | – | – | – | 2
